From paper PMC6815173 come the findings set out here.

Holding throughout (test): SPR
Assay [1] concerns the target M domain of α-catenin (human).
Assay [2] deals with actin-binding domain (ABD) of α-catenin (human).
The target is the same in assay [3]. This is another data set of the same source.

Like-named read-outs stand apart in the source and are kept apart here.

As for “β-catenin•epithelial cadherin cytoplasmic domain complex (BE) (from UniProt P35222;P12830)”, the Kd in assay [1] stood at 104 nM; in assay [2] it was 466 nM; in assay [3], 486 nM. Also, the koff in assay [1] amounted to 0.0013 s⁻¹.
